The results in this text go back to paper PMC12137749 (Nature Communications, 2025).

Data set [1] concerns the molecule itself.
Data set [2] concerns the molecule itself. The data set can be described thus: cryo-EM structure.

Read-outs that look alike come from different tables or passages of the source.

B1: full-length MPXV E5 (mpox virus helicase-primase E5), wild type (enzyme)
chain: MDAAIRGNDVIFVLKTIGVPSACRQNEDPRFVEAFKCDELERYIDNNPECTLFESLRDEEAYSIVRIFMDVDLDACLDEIDYLTAIQDFIIEVSNCVARFAFTECGAIHENVIKSMRSNFSLTKSTNRDKTSFHIIFLDTYTTMDTLIAMKRTLLELSRSSENPLTRSIDTAVYRRKTTLRVVGTRKNPNCDTIHVMQPPHDNIEDYLFTYVDMNNNSYYFSLQRRLEDLVPDKLWEPGFISFEDAIKRVSKIFINSIINFNDLDENNFTTVPLVIDYVTPCALCKKRSHKHPHQLSLENGAIRIYKTGNPHSCKVKIVPLDGNKLFNIAQRILDTNSVLLTERGDHIVWINNSWKFNSEEPLITKLILSIRHQLPKEYSSELLCPRKRKTVEANIRDMLVDSVETDTYPDKLPFKNGVLDLVDGMFYSGDDAKKYTCTVSTGFKFDDTKFVEDSPEMEELMNIINDIQPLTDENKKNRELYEKTLSSCLCGATKGCLTFFFGETATGKSTTKRLLKSAIGDLFVETGQTILTDVLDKGPNPFIANMHLKRSVFCSELPDFACSGSKKIRSDNIKKLTEPCVIGRPCFSNKINNRNHATIIIDTNYKPVFDRIDNALMRRIAVVRFRTHFSQPSGREAAENNDAYDKVKLLDEGLDGKIQNNRYRFAFLYLLVKWYKKYHIPIMKLYPTPEEIPDFAFYLKIGTLLVSSSVKHIPLMTDLSKKGYILYDNVVTLPLTTFQQKISKYFNSRLFGHDIESFINRHKKFANVSDEYLQYIFIEDISSP
A word on the stoichiometry N: it is the number of molecules, sites or subunits per partner or assembly. In the case of B1, the “stoichiometry N” value was 6 in data set [1] and 12 in data set [2].
